Measured values as given in patent US20220348685A1 (ACCELERON PHARMA, published 2022).
Changes are numbered by the printed parent chain.

T1: human ALK7-EK-Fc comprising protein (human, UniProt Q8NER5 22-113)
T1 construct: also called ALK7-Fc comprising protein; Human ALK7-Fc comprising protein; not shown: 'EK' segment between ALK7 and Fc; Fc portion
T1 sequence: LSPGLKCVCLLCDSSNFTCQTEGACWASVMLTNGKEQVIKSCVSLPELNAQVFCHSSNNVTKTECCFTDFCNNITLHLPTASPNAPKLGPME

B1: M01 (antibody, V domains shown)
VH: QLQLQESGPGLVKPSETLSLTCTVSGGSISSSAYYWAWIRQPPGKGLEWIGSIYLSGSTTYNPSLKSRVTISVDTSKNQFSLKLSSVTAADTAVYYCARDGRYQSRSPDYYYGMDVWGQGTTVTVSS
VL: EIVLTQSPGTLSLSPGERATLSCRASQSVSDNYLAWYQQKPGQAPRLLIYGASNIATGIPDRFSGSGSGTDFTLTISRLEPEDFAVYYCASVFSYPFTFGGGTKVEIK
notes: Kappa light chain is implied by the anti-kappa reagent and KappaSelect; In SPR the antibody was captured on a custom FAB chip; also called ALK7 mAb M01
B2: N02 (antibody, V domains shown)
VH: B1 VH
VL: B1 VL with D31S, N32S, N54S, I55T, T57Y, A90Q, S91Q, V92L, F93V, S94A
B3: P03 (antibody, V domains shown)
VH: QVQLVQSGAEVKKPGASVKVSCKASGYTFAGYNMHWVRQAPGQGLEWVGIINPNSGWTNYAQKFQGRVTMTRDTSVSAAYMELSRLRSDDTAVYYCARDPVGARYEVFDYWGQGTLVTVSS
VL: EIVMTQSPATLSVSPGERATLSCQASQSVSSNLAWYQQKPGQAPRLLIYGASTIATGIPARFSGSGSGTEFTLTISSLQSEDFAVYYCQQAYAFPLTFGGGTKVEIK
B4: Q04 (antibody, V domains shown)
VH: B3 VH
VL: B3 VL with Q24K, I54R, Y92V, A93K

target: T1, human ALK7-EK-Fc comprising protein; assay: SPR (Biacore T100/T200), antibody captured on FAB chip, ALK7-Fc protein as analyte, 1:1 model
Experimental: Experiments were performed using a Biacore T100/T200 biosensor (Biacore/GE Healthcare) at 25 and 37° C. ALK7 antibodies were captured on custom made FAB chip. A concentration series of ALK7-Fc comprising protein was injected over the flow cells at a flow rate of […]. To obtain kinetic rate constants the corrected data were fit to a 1:1 interaction model using BiaEvaluation software (GE Healthcare). The equilibrium binding constant KD was determined by the ratio of binding rate constants kd/ka.

Kd	koff	kon	Binder
1000 pM	4.32e-05 s⁻¹	43100 M⁻¹ s⁻¹	B1
870 pM	5.2e-05 s⁻¹	59800 M⁻¹ s⁻¹	B2
390 pM	1.43e-05 s⁻¹	36600 M⁻¹ s⁻¹	B3
1420 pM	4.7e-05 s⁻¹	33100 M⁻¹ s⁻¹	B4
